# Source: patent US8658672
# T1: F-HIF-1α peptide (788-822 amino acids)
# T1 chain: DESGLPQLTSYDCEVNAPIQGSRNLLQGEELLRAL
# B1: recombinant human FIH-1, histidine-tagged fusion protein (protein)
# chain: MAATAAEAVASGSGEPREEAGALGPAWDESQLRSYSFPTRPIPRLSQSDPRAEELIENEEPVVLTDTNLVYPALKWDLEYLQENIGNGDFSVYSASTHKFLYYDEKKMANFQNFKPRSNREEMKFHEFVEKLQDIQQRGGEERLYLQQTLNDTVGRKIVMDFLGFNWNWINKQQGKRGWGQLTSNLLLIGMEGNVTPAHYDEQQNFFAQIKGYKRCILFPPDQFECLYPYPVHHPCDRQSQVDFDNPDYERFPNFQNVVGYETVVGPGDVLYIPMYWWHHIESLLNGGITITVNFWYKGAPTPKRIEYPLKAHQKVAIMRNIEKMLGEALGNPQEVGPLLNTMIKGRYN
# Tests used:
# [1] = target: T1, F-HIF-1α peptide (788-822 amino acids)
# [2] = target: [35S]-labeled human HIF-1α protein, Q16665
# Sequence of [35S]-labeled human HIF-1α protein, Q16665 (Q16665 401-826): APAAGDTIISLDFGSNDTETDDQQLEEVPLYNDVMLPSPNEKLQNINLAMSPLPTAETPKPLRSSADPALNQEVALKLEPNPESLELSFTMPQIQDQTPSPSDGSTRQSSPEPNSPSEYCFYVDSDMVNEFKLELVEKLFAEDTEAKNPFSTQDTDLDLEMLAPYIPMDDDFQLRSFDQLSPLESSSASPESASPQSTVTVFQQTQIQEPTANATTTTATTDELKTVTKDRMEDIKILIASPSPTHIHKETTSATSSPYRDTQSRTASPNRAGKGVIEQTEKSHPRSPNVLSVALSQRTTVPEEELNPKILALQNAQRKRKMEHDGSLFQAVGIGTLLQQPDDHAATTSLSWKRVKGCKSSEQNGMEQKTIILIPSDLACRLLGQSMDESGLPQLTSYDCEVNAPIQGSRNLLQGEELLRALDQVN
protein,measurement,setting,value
B1,MALDI-TOF mass of the peptide after incubation with FIH-1 (asparagine hydroxylation),[1],after treatment with FIH-1 the peptide gave a new MALDI-TOF peak corresponding to an increase of molecular weight of 16
same,interaction of [35S]-HIF-1α with bead-bound GST-CBP after reaction with FIH-1,[2],the addition of FIH-1 reduced significantly the interaction between HIF-1α and CBP
